# Laboratory results as given in article doi:10.1101/2022.05.30.493996.
# Target: Gp57 (purified) (phage SECΦ27)
# Experiment: ITC
substance,measurement,value
"CapRel^SJ46 (purified, full-length) (enzyme)",Kd,190 nM
